# Reference: publication PMC10256740
# B1: EGFP-Tis11d (natural protein)
# chain: MSTTLLSPFYDIDFLCKTEKSLANLNLNNMLDKKAVGTPVAAAPSSSFTPGFLRRHSASNLHALAHPVPSPGSCSPKFPGAPNGGGSSCGPAGGGGLASYGQLKEPSGGSGTALVTKESKFRDRSFSENGERSQHLLHLQQQQKGGSGSQINSTRYKTELCRPFEESGTCKYGEKCQFAHGFHELRSLTRHPKYKTELCRTFHTIGFCPYGPRCHFIHNADERRPAPSGGGGASGDLRAFGARDALHLGFAREPRPKLHHSLSFSGFPSGHHQPPGGLESPLLLDSPTSRTPPPPSSSASSCSSSASSCSSASAASTPSGAPTCCATAAAAALLYGPGGAEDLLSPGAPCASCSSSGANNAFAFGPELSSLITPLAIQTHNFAAAAAAAYYRNQQQGLTGPAPPPAQPPAAPAPPSPPFGFQLPRRLSESPVFDAPPSPPDSLSDRDSYLSGSLSSGSLSGSESPSLDPGRRLPIFSRLSISDD
# Assays:
# [1] = target: FLAG-tagged BicD2-Kif1c tail fusion (mouse) (UniProt O35071); assay: centrosome recruitment assay with BicD2-kinesin tail fusions (relocalisation in cells, microscopy); N2A cells transfected with FLAG-BicD2-KIF tail fusion and EGFP-tagged RBP (2:3), fixed after 24 h, anti-FLAG staining; read-out log2 of the mean EGFP intensity at the centrosome over the mean intensity in the whole cell
# Sequence of FLAG-tagged BicD2-Kif1c tail fusion (mouse) (O35071 whole entry, the tested form may be a part): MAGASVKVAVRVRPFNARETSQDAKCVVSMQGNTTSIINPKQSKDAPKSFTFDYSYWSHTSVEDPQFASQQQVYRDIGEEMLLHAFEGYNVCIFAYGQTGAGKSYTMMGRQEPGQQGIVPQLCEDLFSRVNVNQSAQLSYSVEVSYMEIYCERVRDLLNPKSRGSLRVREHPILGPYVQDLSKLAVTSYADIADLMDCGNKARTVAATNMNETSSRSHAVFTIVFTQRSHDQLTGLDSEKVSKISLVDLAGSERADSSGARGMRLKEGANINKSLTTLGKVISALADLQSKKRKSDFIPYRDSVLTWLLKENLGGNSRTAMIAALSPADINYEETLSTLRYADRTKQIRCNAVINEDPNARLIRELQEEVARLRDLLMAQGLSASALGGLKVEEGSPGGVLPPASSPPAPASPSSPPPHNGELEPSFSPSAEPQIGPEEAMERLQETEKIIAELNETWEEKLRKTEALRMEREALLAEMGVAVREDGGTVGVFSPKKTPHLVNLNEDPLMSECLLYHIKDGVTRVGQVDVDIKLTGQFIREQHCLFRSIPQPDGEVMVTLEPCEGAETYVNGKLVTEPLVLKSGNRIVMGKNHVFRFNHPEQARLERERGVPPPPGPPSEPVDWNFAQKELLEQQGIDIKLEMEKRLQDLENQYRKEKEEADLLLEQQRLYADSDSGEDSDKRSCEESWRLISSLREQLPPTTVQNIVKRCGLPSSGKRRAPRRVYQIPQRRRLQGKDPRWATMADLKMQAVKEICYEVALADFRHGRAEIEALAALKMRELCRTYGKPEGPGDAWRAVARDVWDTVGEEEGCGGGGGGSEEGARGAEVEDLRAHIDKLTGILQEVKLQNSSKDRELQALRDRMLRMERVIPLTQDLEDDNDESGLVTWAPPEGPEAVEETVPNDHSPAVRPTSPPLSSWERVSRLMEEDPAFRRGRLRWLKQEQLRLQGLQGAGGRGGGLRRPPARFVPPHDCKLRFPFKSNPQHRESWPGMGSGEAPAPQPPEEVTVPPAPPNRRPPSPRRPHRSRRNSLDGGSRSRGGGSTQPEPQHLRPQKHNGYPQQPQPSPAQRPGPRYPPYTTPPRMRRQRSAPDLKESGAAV
# [2] = target: FLAG-tagged BicD2-Kif1bα tail fusion (mouse) (UniProt Q60575); assay: as above
# Sequence of FLAG-tagged BicD2-Kif1bα tail fusion (mouse) (Q60575 other isoform, or with tags, fused parts or gaps): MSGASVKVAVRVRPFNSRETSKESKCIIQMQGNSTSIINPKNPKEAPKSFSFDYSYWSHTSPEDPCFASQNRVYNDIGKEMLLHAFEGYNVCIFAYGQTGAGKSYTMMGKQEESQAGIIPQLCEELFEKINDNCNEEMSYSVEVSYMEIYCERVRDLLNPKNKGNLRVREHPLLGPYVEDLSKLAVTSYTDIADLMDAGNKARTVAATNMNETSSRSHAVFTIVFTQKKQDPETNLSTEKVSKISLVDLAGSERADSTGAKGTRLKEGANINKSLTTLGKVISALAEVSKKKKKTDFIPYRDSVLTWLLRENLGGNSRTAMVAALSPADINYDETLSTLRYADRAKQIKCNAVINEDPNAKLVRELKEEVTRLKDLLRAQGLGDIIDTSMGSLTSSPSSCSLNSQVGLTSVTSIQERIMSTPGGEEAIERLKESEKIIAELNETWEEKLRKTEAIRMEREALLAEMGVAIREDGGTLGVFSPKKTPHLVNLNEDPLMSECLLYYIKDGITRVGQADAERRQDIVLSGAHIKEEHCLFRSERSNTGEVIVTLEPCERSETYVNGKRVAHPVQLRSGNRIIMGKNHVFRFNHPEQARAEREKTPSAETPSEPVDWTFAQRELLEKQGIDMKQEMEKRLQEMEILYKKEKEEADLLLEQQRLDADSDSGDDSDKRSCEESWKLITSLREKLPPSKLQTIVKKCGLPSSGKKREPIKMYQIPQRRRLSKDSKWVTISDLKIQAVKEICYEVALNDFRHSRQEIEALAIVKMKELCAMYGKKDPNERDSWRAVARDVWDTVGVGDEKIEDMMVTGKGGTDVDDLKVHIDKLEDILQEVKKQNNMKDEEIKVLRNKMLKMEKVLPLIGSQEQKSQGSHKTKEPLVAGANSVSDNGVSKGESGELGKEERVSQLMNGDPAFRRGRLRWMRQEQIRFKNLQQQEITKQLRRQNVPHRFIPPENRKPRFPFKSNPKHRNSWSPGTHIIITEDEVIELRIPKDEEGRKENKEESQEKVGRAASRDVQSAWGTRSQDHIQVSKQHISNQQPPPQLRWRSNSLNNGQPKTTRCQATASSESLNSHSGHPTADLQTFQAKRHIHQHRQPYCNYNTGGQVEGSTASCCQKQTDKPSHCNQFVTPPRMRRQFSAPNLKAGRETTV
binder,measurement,setting,value
B1,log2 mean centrosome recruitment,[1],1.13 log2
same,log2 mean centrosome recruitment,[2],1.24 log2
